What all share (assay): SPR, Fab on captured PD-1-Fc
(SPR reads the build-up and loss of mass on a sensor chip optically.)

Assay [1] concerns the target T1, human PD-1 ECD-Fc chimeric construct 1 (human, UniProt Q15116 21-170).
T1 construct: not shown: human IgG1 Fc, residues P101-K330

The target of assay [2] is T2, human PD-1 ECD-Fc chimeric construct 2 (human, UniProt Q15116 21-170).
T2 construct: not shown: human IgG1 Fc, residues P101-K330
T2 chain: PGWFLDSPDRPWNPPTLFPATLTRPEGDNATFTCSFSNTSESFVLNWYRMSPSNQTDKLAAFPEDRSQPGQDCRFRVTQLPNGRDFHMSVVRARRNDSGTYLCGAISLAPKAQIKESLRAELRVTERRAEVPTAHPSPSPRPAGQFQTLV

Assay [3] concerns the target T3, human PD-1 ECD-Fc chimeric construct 8 (human, UniProt Q15116 21-170).
T3 construct: not shown: human IgG1 Fc, residues P101-K330
T3 chain: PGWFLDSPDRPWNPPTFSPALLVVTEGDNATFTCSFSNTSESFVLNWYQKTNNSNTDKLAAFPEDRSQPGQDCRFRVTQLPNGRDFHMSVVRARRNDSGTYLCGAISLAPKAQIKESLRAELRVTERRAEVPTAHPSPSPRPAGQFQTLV

For assay [4], the target named is T4, human PD-1 ECD-Fc chimeric construct 18 (human, UniProt Q15116 21-170).
T4 construct: not shown: human IgG1 Fc, residues P101-K330
T4 chain: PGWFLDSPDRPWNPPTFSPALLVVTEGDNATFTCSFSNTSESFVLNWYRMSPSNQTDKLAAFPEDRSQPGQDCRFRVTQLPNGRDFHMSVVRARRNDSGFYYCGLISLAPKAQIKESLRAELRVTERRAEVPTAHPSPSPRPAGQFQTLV

In assay [5] the target is T5, human PD-1 ECD-Fc chimeric construct 19 (human, UniProt Q15116 21-170).
T5 construct: not shown: human IgG1 Fc, residues P101-K330
T5 chain: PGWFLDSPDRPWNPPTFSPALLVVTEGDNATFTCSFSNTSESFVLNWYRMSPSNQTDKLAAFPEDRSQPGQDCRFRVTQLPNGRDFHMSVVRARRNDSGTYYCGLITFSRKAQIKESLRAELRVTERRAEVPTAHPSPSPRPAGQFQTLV

For assay [6], the target named is T6, human PD-1 ECD-Fc chimeric construct 20 (human, UniProt Q15116 21-170).
T6 construct: printed run together as I134VK135V; not shown: human IgG1 Fc, residues P101-K330
T6 chain: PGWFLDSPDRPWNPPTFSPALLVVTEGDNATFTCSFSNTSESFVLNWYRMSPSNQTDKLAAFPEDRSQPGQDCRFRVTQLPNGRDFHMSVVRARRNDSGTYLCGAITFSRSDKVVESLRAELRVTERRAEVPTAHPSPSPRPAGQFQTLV

For assay [7], the target named is T7, human PD-1 ECD-Fc D92A (human, UniProt Q15116 21-170).
T7 construct: not shown: human IgG1 Fc, residues P101-K330
T7 sequence (Q15116 21-170 D92A): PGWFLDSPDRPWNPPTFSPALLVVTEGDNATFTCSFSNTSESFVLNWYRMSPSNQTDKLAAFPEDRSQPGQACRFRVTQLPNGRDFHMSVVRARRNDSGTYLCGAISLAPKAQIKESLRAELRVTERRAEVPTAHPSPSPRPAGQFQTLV

Assay [8] has as its target T8, human PD-1 ECD-Fc T98A (human, UniProt Q15116 21-170).
T8 construct: not shown: human IgG1 Fc, residues P101-K330

In assay [9] the target is T9, human PD-1 ECD-Fc P101A (human, UniProt Q15116 21-170).
T9 construct: not shown: human IgG1 Fc, residues P101-K330

Assay [10] addresses T10, human PD-1 ECD-Fc Q133A (human, UniProt Q15116 21-170).
T10 construct: not shown: human IgG1 Fc, residues P101-K330

Assay [11] concerns the target T11, human PD-1 ECD-Fc E146A (human, UniProt Q15116 21-170).
T11 construct: not shown: human IgG1 Fc, residues P101-K330

For assay [12], the target named is T12, human PD-1 ECD-Fc A149G (human, UniProt Q15116 21-170).
T12 construct: not shown: human IgG1 Fc, residues P101-K330
T12 sequence (Q15116 21-170 A149G): as the sequence (Q15116 21-170 D92A) above, with A72D, A129G counted along it

In assay [13] the target is T13, human PD-1 ECD-Fc T153A (human, UniProt Q15116 21-170).
T13 construct: not shown: human IgG1 Fc, residues P101-K330
T13 sequence (Q15116 21-170 T153A): as the sequence (Q15116 21-170 D92A) above, with A72D, T133A counted along it

In assay [14] the target is T14, human PD-1 ECD-Fc S157A (human, UniProt Q15116 21-170).
T14 construct: not shown: human IgG1 Fc, residues P101-K330
T14 sequence (Q15116 21-170 S157A): as the sequence (Q15116 21-170 D92A) above, with A72D, S137A counted along it

For assay [15], the target named is T15, human PD-1 ECD-Fc A163G (human, UniProt Q15116 21-170).
T15 construct: not shown: human IgG1 Fc, residues P101-K330
T15 sequence (Q15116 21-170 A163G): as the sequence (Q15116 21-170 D92A) above, with A72D, A143G counted along it

Assay [16] addresses T16, human PD-1 ECD-Fc G164A (human, UniProt Q15116 21-170).
T16 construct: not shown: human IgG1 Fc, residues P101-K330

Assay [17] has as its target T17, human PD-1 ECD-Fc A40T (human, UniProt Q15116 21-170).
T17 construct: also called Rat mutation A40T; not shown: human IgG1 Fc, residues P101-K330

Assay [18] addresses T18, human PD-1 ECD-Fc F56A (human, UniProt Q15116 21-170).
T18 construct: not shown: human IgG1 Fc, residues P101-K330

The target of assay [19] is T19, human PD-1 ECD-Fc N66A (human, UniProt Q15116 21-170).
T19 construct: not shown: human IgG1 Fc, residues P101-K330
T19 sequence (Q15116 21-170 N66A): as the sequence (Q15116 21-170 D92A) above, with N46A, A72D counted along it

The target in assay [20] is T20, human PD-1 ECD-Fc Y68A (human, UniProt Q15116 21-170).
T20 construct: not shown: human IgG1 Fc, residues P101-K330
T20 sequence (Q15116 21-170 Y68A): as the sequence (Q15116 21-170 D92A) above, with Y48A, A72D counted along it

For assay [21], the target named is T21, human PD-1 ECD-Fc P72A (human, UniProt Q15116 21-170).
T21 construct: not shown: human IgG1 Fc, residues P101-K330
T21 sequence (Q15116 21-170 P72A): as the sequence (Q15116 21-170 D92A) above, with P52A, A72D counted along it

The target in assay [22] is T22, human PD-1 ECD-Fc K78A (human, UniProt Q15116 21-170).
T22 construct: not shown: human IgG1 Fc, residues P101-K330
T22 sequence (Q15116 21-170 K78A): as the sequence (Q15116 21-170 D92A) above, with K58A, A72D counted along it

The target in assay [23] is T23, human PD-1 ECD-Fc A80G (human, UniProt Q15116 21-170).
T23 construct: not shown: human IgG1 Fc, residues P101-K330
T23 sequence (Q15116 21-170 A80G): as the sequence (Q15116 21-170 D92A) above, with A60G, A72D counted along it

Assay [24] deals with T24, human PD-1 ECD-Fc P83A (human, UniProt Q15116 21-170).
T24 construct: not shown: human IgG1 Fc, residues P101-K330
T24 sequence (Q15116 21-170 P83A): as the sequence (Q15116 21-170 D92A) above, with P63A, A72D counted along it

T10 sequence (Q15116 21-170 Q133A): as the sequence (Q15116 21-170 D92A) above, with A72D, Q113A counted along it
T11 sequence (Q15116 21-170 E146A): as the sequence (Q15116 21-170 D92A) above, with A72D, E126A counted along it
T16 sequence (Q15116 21-170 G164A): as the sequence (Q15116 21-170 D92A) above, with A72D, G144A counted along it
T18 sequence (Q15116 21-170 F56A): as the sequence (Q15116 21-170 D92A) above, with F36A, A72D counted along it

B1: 12865.17150 Fab (Fab, V domains shown)
VH: EVQLLESGGGLVQPGGSLRLSCAASGFDFSDHGMQWVRQAPGKGLEYVGVIDTTGRYTYYAPAVKGRATISRDNSKNTLYLQMNSLRAEDTAVYYCAKTTCVGGYLCNTVGSIDAWGQGTLVTVSS
VL: SYELTQDPAVSVALGQTVRITCSGGGSSSYYGWYQQKPGQAPVTVIYDDTNRPSGIPDRFSGSSSGNTASLTITGAQAEDEADYYCGGYEGSSHAGIFGSGTKVTVL
notes: monomeric Fab fragment
Take B1: the “KD mutant/KD wild-type” value was 0.6 ratio in assay [1]; 0.7 ratio in [2]; 4.6 ratio in assay [4]; 0.8 ratio in assay [7]; 0.9 ratio in assay [8]; 1 ratio in assay [9]. Moreover, the “KD mutant/KD wild-type” value turned out to be 1.4 ratio in [10]; 1 ratio in [11]; 1 ratio in [12]; 1 ratio in [13]; 1 ratio in assay [14]; 1.1 ratio in assay [15]. The “KD mutant/KD wild-type” value in [16] is 0.9 ratio; in assay [17] it was 1 ratio; in assay [18], 0.5 ratio; in [19] it was 2.1 ratio; in [20], 1.4 ratio; in assay [21], 1.8 ratio. Also, the “KD mutant/KD wild-type” value in assay [22] turned out to be 0.7 ratio; in assay [23], 0.4 ratio; in assay [24] it was 0.8 ratio. For the same molecule, the binding result in assay [3], in assay [5] and in [6] was “no binding (tested: 1 nM to 50 nM)” each time.

B2: 12819.17149 Fab (Fab, V domains shown)
VH: EVQLLESGGGLVQPGGSLRLSCAASGFTFTRYDMVWVRQAPGKGLEWVAGIGDSNKMTRYAPAVKGRATISRDNSKNTLYLQMNSLRAEDTAVYYCAKGSCIACWDEAGRIDAWGQGTLVTVSS
VL: SYELTQDPAVSVALGQTVRITCSGGGSYDGSSYYGWYQQKPGQAPVTVIYNNNNRPSDIPDRFSGSSSGNTASLTITGAQAEDEADYYCGSYDRPETNSDYVGMFGSGTKVTVL
notes: monomeric Fab fragment
As for B2, the “KD mutant/KD wild-type” value in [1] worked out at 1.2 ratio; in assay [2], 2.3 ratio; in assay [3] it was 6.4 ratio; in [4], 3.8 ratio; in assay [5], 175 ratio; in assay [7] it was 1.2 ratio. Moreover, the “KD mutant/KD wild-type” value turned out to be 1.1 ratio in [8]; 1.1 ratio in assay [9]; 0.7 ratio in assay [10]; 1.2 ratio in [11]; 0.8 ratio in [12]; 0.9 ratio in assay [13]. The “KD mutant/KD wild-type” value in assay [14] came out at 0.9 ratio; in assay [15], 1 ratio; in assay [16], 1.1 ratio; in assay [17], 2 ratio; in assay [18] it was 1.5 ratio; in assay [19] it was 2.2 ratio. Besides, the “KD mutant/KD wild-type” value was 2.2 ratio in assay [20]; 1.1 ratio in [21]; 2.6 ratio in [22]; 1.2 ratio in assay [23]; 1.5 ratio in assay [24]. Further, in [6], the binding result was “no binding (tested: 1 nM to 50 nM)”.

B3: 13112.15380 Fab (Fab, V domains shown)
VH: EVQLLESGGGLVQPGGSLRLSCAASGFTFSSYNMFWVRQAPGKGLEFVAEISGSNTGSRTWYAPAVKGRATISRDNSKNTLYLQMNSLRAEDTAVYYCAKSIYGGYCAGGYSCGVGLIDAWGQGTLVTVSS
VL: SYELTQDPAVSVALGQTVRITCSGGSSDYYGWFQQKPGQAPVTVIYYNNKRPSDIPDRFSGSSSGNTASLTITGAQAEDEADYYCGNADSSVGVFGSGTKVTVL
For B3, the “KD mutant/KD wild-type” value in assay [1] is 0.4 ratio; in assay [2], 1 ratio; in assay [3] it was 1.6 ratio; in assay [4], 1.5 ratio; in [5] it was 0.8 ratio; in assay [6] it was 0.6 ratio. In addition, the “KD mutant/KD wild-type” value in assay [7] came out at 0.9 ratio; in assay [8], 1 ratio; in assay [9], 0.9 ratio; in assay [10], 0.9 ratio; in [11], 1 ratio; in assay [12], 1 ratio. For the same molecule, the “KD mutant/KD wild-type” value in [13] turned out to be 1 ratio; in assay [14] it was 1 ratio; in [15] it was 1.1 ratio; in assay [16], 1 ratio; in assay [17], 0.6 ratio; in assay [18] it was 0.8 ratio. Besides, the “KD mutant/KD wild-type” value is 1 ratio in assay [19]; 0.8 ratio in [20]; 1 ratio in assay [21]; 1.1 ratio in assay [22]; 1 ratio in assay [23]; 0.9 ratio in [24].

Source of the values: US20210284734A1 (SYMPHOGEN A S, published 2021).
